According to the supplement of paper PMC9732359:
± gives the uncertainty stated by the source.

Assay: protein stability index of a GFP-peptide fusion (yeast GPS) (PSI 1-4); higher = more stable; sorted into four equal gates, so the index is relative within each strain
Method in brief: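 The protein stability index combines read frequencies across sorting gates, each weighted by its gate number and then summed. To obtain those frequencies, a pooled yeast library of GFP fusions to tiled 17-residue yeast protein peptides, on a plasmid also expressing Cherry, was grown to mid-log phase in leucine-free medium. The cells were sorted into four equal gates by GFP/Cherry ratio before plasmid amplification by PCR and Illumina sequencing.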

Row | Sequence | protein stability index (pdr5∆) | protein stability index (san1∆) | protein stability index (ubr1∆) | protein stability index (doa10∆)
1 | VSTRAIDLLWKGKTPKN [PRP28] | 1.48 ± 0.12 | 1.18 ± 0.12 | 1.16 ± 0.14 | –
2 | GYDRHITIFSPEGRLYQ [SCL1] | 2.84 ± 0.082 | 2.96 ± 0.057 | 3.06 ± 0.077 | 2.76 ± 0.11
3 | FVEEQNVYVLPKNLLKK [PRP8] | 2.5 ± 0.045 | 2.54 ± 0.07 | 2.87 ± 0.059 | 2.54 ± 0.056
4 | ETLEHNPVALEQKLVDL [BRR2] | 2.79 ± 0.077 | 2.43 ± 0.074 | 2.35 ± 0.11 | 2.15 ± 0.092
5 | SDKDATTDGKNDDEEEE [RPN1] | 3.33 ± 0.26 | – | – | –
6 | DEEMTISQKLHDSILHS [RRP43] | 2.74 ± 0.035 | 2.82 ± 0.03 | 2.92 ± 0.035 | 2.7 ± 0.052
7 | NPYNIVPQGKIVALTNA [SMC3] | 2.78 ± 0.086 | 2.82 ± 0.12 | 3.11 ± 0.078 | 2.77 ± 0.14
8 | DDRDHFGKKRLDLAGPL [RPB2] | 2.85 ± 0.16 | 3.2 ± 0.21 | 3.31 ± 0.16 | –
9 | QLYFQKNGAQDLVLQIL [RRI2] | 2.81 ± 0.12 | 2.32 ± 0.097 | 2.62 ± 0.048 | 2.6 ± 0.12
10 | CAEGIFVVKLDTVDRLI [GAL11] | 3.13 ± 0.11 | 3.02 ± 0.13 | 2.62 ± 0.092 | 2.89 ± 0.12
11 | GSKENYQELGSLQSSSQ [MED2] | 3.45 ± 0.098 | 3.27 ± 0.071 | 3.12 ± 0.093 | 3.16 ± 0.15
12 | ELKDLETQVEVEKNEIG [NNF1] | 3.24 ± 0.11 | 2.97 ± 0.17 | 3.33 ± 0.13 | 3.05 ± 0.19
13 | LSSLILKIFQEQSLEVF [SRB8] | 2.67 ± 0.12 | 2.88 ± 0.09 | 2.71 ± 0.1 | 2.5 ± 0.087
14 | KKICNHPFVFEEVEDQI [SNF2] | 2.89 ± 0.055 | 2.94 ± 0.06 | 2.86 ± 0.045 | 3.17 ± 0.064
15 | QRGEDDLTFKLADILKA [RPO21] | 2.61 ± 0.1 | 2.45 ± 0.066 | 2.1 ± 0.046 | 2.34 ± 0.082
16 | NSIKNVPPILIILPLDN [SSN2] | 1.61 ± 0.11 | – | 1.82 ± 0.068 | 2.01 ± 0.21
17 | ELDEHTTQIDLFRIFSM [BRR2] | 1.56 ± 0.1 | 1.61 ± 0.15 | 1.22 ± 0.059 | 2.25 ± 0.1
18 | SNPSGNYTGWKAISVGA [PRE9] | 2.5 ± 0.061 | 2.54 ± 0.086 | 2.22 ± 0.048 | 1.89 ± 0.073
19 | ARWPAKSVKFVQGLLQN [RPL17A] | 2.17 ± 0.083 | 1.89 ± 0.088 | 2.13 ± 0.073 | 2.35 ± 0.097
20 | LRRRTASHNVRRIPKRM [POP1] | 3.02 ± 0.062 | 2.85 ± 0.052 | 2.75 ± 0.042 | 2.98 ± 0.065

Row | Sequence | protein stability index (pdr5∆) | protein stability index (san1∆) | protein stability index (ubr1∆) | protein stability index (doa10∆)
21 | QQQPQPQYNMNMGMNNM [PGD1] | 2.77 ± 0.05 | 3.29 ± 0.041 | 2.89 ± 0.069 | 3.02 ± 0.049
22 | NRPNTLDPALLRPGRID [RPT1] | 3.01 ± 0.14 | 3.16 ± 0.064 | 2.61 ± 0.13 | 2.72 ± 0.14
23 | AQGTKFRISLGLPVGAI [RPL23A] | 1.84 ± 0.063 | 1.42 ± 0.17 | 1.92 ± 0.11 | 1.94 ± 0.1
24 | SSGFNEDIVGALRRRVG [REC8] | 1.16 ± 0.055 | 1.44 ± 0.26 | 1.11 ± 0.11 | 1.17 ± 0.085
25 | LKKNNYNSFPHSNLEKI [SIR4] | 3.27 ± 0.094 | 3.19 ± 0.053 | 3.17 ± 0.054 | 3.06 ± 0.099
26 | GPKKNVFYAPNVKNYST [RPC34] | 2.56 ± 0.059 | 2.91 ± 0.056 | 2.49 ± 0.044 | 2.69 ± 0.072
27 | VDGMAKVPIGLILQRLK [RGR1] | 2.67 ± 0.091 | 2.22 ± 0.15 | 2.49 ± 0.057 | 2.51 ± 0.1
28 | TTVPFKESDDPSIPLVI [POP1] | 3.01 ± 0.069 | 2.87 ± 0.054 | 2.89 ± 0.077 | 2.8 ± 0.068
29 | ILKLLNGFMESAIVNED [SOH1] | 3.27 ± 0.18 | 3.41 ± 0.17 | 3.57 ± 0.22 | –
30 | LLDTNSLEENAMSTVTL [SKI6] | 3.04 ± 0.066 | 3.04 ± 0.083 | 2.89 ± 0.061 | 3.11 ± 0.086
31 | KTCIQGINSPLSSVALR [YJL039C/NUP192] | 1.41 ± 0.25 | – | – | –
32 | GRYAGKKVVIVKPHDEG [RPL27A] | 2.72 ± 0.21 | – | 2.29 ± 0.26 | 3.25 ± 0.25
33 | HKVQTKLTRELEKKFPD [RPS7B] | 3.07 ± 0.093 | 3.1 ± 0.058 | 3.07 ± 0.055 | 2.82 ± 0.16
34 | NEETFTVPELEIPTQIY [ARP9] | 2.77 ± 0.059 | 2.48 ± 0.064 | 2.92 ± 0.063 | 2.7 ± 0.065
35 | QLQGPQWMNEMVERWAN [SOH1] | 3.18 ± 0.091 | 2.93 ± 0.099 | 3.06 ± 0.084 | 3.28 ± 0.11
36 | LNGGLQFVPELKEFTAK [FAS2] | 2.72 ± 0.11 | 2.3 ± 0.092 | 1.83 ± 0.064 | 2.75 ± 0.11
37 | HPKLIKNKSGKIFVETK [FAS1] | 2.76 ± 0.067 | 2.47 ± 0.13 | 2.67 ± 0.1 | 2.3 ± 0.067
38 | EKESVEKQHENAVLELG [SMC3] | 3.52 ± 0.13 | 2.9 ± 0.1 | 3.42 ± 0.073 | 3.36 ± 0.2
39 | ATGNESQDATKVDATPE [YLR335W/NUP2] | 3.22 ± 0.082 | 3.04 ± 0.066 | 2.94 ± 0.099 | 2.87 ± 0.086
40 | SETREKELESIDVLLEQ [RPB4] | 3.11 ± 0.096 | 2.86 ± 0.11 | 3 ± 0.095 | 3.04 ± 0.13
